Data reported in US20230140293A1.

Assays:
[1] = molecular target: CH505 w030.28 gp120 (HIV-1); assay: ELISA, gp120 on plate
[2] = molecular target: CH505 w078.15 gp120 (HIV-1); assay: ELISA, gp120 on plate
[3] = molecular target: CH505 transmitted/founder (TF) gp120 (HIV-1); assay: ELISA, gp120 on plate
[4] = molecular target: CH505 w053.31 gp120 (HIV-1); assay: ELISA, gp120 on plate
[5] = molecular target: CH505 w053.16 gp120 (HIV-1); assay: ELISA, gp120 on plate
[6] = molecular target: CH505 w078.33 gp120 (HIV-1); assay: ELISA, gp120 on plate
CH505 M11 gp120 (HIV-1) = assay: ELISA, gp120 on plate
[7] = molecular target: CH505 w030.21 gp120 (HIV-1); assay: ELISA, gp120 on plate
[8] = molecular target: CH505 w020.14 gp120 (HIV-1); assay: ELISA, gp120 on plate
[9] = molecular target: CH505 w100.B6 gp120 (HIV-1); assay: ELISA, gp120 on plate
CH505 M5 gp120 (HIV-1) = assay: ELISA, gp120 on plate
[10] = molecular target: CH0505TF.gly3.276 Env, pseudotyped virus produced in 293S GnTI- cells (HIV-1); assay: cell-based or functional assay
[11] = molecular target: CH0505TF.gly3.197 Env, pseudotyped virus produced in 293S GnTI- cells (HIV-1); assay: cell-based or functional assay
[12] = molecular target: CH0505TF Env, pseudotyped virus produced in 293S GnTI- cells (HIV-1); assay: cell-based or functional assay
[13] = molecular target: CH0505TF.gly3.461 Env, Env-pseudotyped virus produced in 293T cells (HIV-1); assay: cell-based or functional assay
[14] = molecular target: CH0505TF.gly3.276 Env, Env-pseudotyped virus produced in 293T cells (HIV-1); assay: cell-based or functional assay
[15] = molecular target: CH0505TF Env, Env-pseudotyped virus produced in 293T cells (HIV-1); assay: cell-based or functional assay
[16] = molecular target: CH0505TF.gly3.461 Env, pseudotyped virus produced in 293S GnTI- cells (HIV-1); assay: cell-based or functional assay
[17] = molecular target: CH0505TF.G458Y Env, pseudotyped virus produced in 293S GnTI- cells (HIV-1); assay: cell-based or functional assay
[18] = molecular target: CH0505TF.gly4 Env, Env-pseudotyped virus produced in 293T cells (HIV-1); assay: cell-based or functional assay
[19] = molecular target: CH0505.w4.3 Env, Env-pseudotyped virus produced in 293T cells (HIV-1); assay: cell-based or functional assay
[20] = molecular target: CH0505TF.G458Y Env, Env-pseudotyped virus produced in 293T cells (HIV-1); assay: cell-based or functional assay
[21] = molecular target: CH0505TF.gly4 Env, pseudotyped virus produced in 293S GnTI- cells (HIV-1); assay: cell-based or functional assay
[22] = molecular target: CH0505TF.gly3.197 Env, Env-pseudotyped virus produced in 293T cells (HIV-1); assay: cell-based or functional assay
[23] = molecular target: HIV-1 CH0505TF.S365P Env on Env-pseudotyped virus produced in 293T cells (HIV-1); assay: cell-based or functional assay
[24] = molecular target: HIV-1 CH0505TF (CH505 transmitted/founder) Env on Env-pseudotyped virus produced in 293T cells (HIV-1); assay: cell-based or functional assay
[25] = molecular target: HIV-1 CH0505TF.G458Y Env on Env-pseudotyped virus produced in 293T cells (HIV-1); assay: cell-based or functional assay
[26] = molecular target: HIV-1 CH0505TF.N280D Env on Env-pseudotyped virus produced in 293T cells (HIV-1); assay: cell-based or functional assay
[27] = molecular target: HIV-1 426c.SM (N276D) Env on Env-pseudotyped virus produced in 293s/GnTI-/- cells (Man5-enrichment) (HIV-1); assay: cell-based or functional assay
[28] = molecular target: HIV-1 Env 426c.TM (N276D.N460D.N463D), Env-pseudotyped virus produced in 293T cells (HIV-1 clade C strain 426c); assay: cell-based or functional assay
[29] = molecular target: HIV-1 Env 426c, Env-pseudotyped virus produced in 293T cells (HIV-1 clade C strain 426c); assay: cell-based or functional assay
[30] = molecular target: HIV-1 426c.DM (N460D/N463D) Env on Env-pseudotyped virus produced in 293T cells (HIV-1); assay: cell-based or functional assay
[31] = molecular target: HIV-1 426c.TM (N276D/N460D/N463D) Env on Env-pseudotyped virus produced in 293s/GnTI-/- cells (Man5-enrichment) (HIV-1); assay: cell-based or functional assay
[32] = molecular target: HIV-1 Env 426c.SM (N276D), Env-pseudotyped virus produced in 293T cells (HIV-1 clade C strain 426c); assay: cell-based or functional assay
[33] = molecular target: HIV-1 Env 426c.DM (N460D.N463D), Env-pseudotyped virus produced in 293S GnTI- cells (Man5-enriched) (HIV-1 clade C strain 426c); assay: cell-based or functional assay
[34] = molecular target: HIV-1 Env 426c.SM (N276D), Env-pseudotyped virus produced in 293S GnTI- cells (Man5-enriched) (HIV-1 clade C strain 426c); assay: cell-based or functional assay
[35] = molecular target: HIV-1 clade C strain 426c Env on Env-pseudotyped virus produced in 293s/GnTI-/- cells (Man5-enrichment) (HIV-1); assay: cell-based or functional assay
[36] = molecular target: HIV-1 426c.DM (N460D/N463D) Env on Env-pseudotyped virus produced in 293s/GnTI-/- cells (Man5-enrichment) (HIV-1); assay: cell-based or functional assay
[37] = molecular target: HIV-1 Env 426c.DM (N460D.N463D), Env-pseudotyped virus produced in 293T cells (HIV-1 clade C strain 426c); assay: cell-based or functional assay
[38] = molecular target: HIV-1 426c.TM (N276D/N460D/N463D) Env on Env-pseudotyped virus produced in 293T cells (HIV-1); assay: cell-based or functional assay
[39] = molecular target: HIV-1 Env 426c.TM4 (S278R.G471S.N460D.N463D), Env-pseudotyped virus produced in 293S GnTI- cells (Man5-enriched) (HIV-1 clade C strain 426c); assay: cell-based or functional assay
[40] = molecular target: HIV-1 Env 426c.TM4 (S278R.G471S.N460D.N463D), Env-pseudotyped virus produced in 293T cells (HIV-1 clade C strain 426c); assay: cell-based or functional assay
[41] = molecular target: HIV-1 426c.SM (N276D) Env on Env-pseudotyped virus produced in 293T cells (HIV-1); assay: cell-based or functional assay
[42] = molecular target: HIV-1 Env 426c.TM (N276D.N460D.N463D), Env-pseudotyped virus produced in 293S GnTI- cells (Man5-enriched) (HIV-1 clade C strain 426c); assay: cell-based or functional assay
[43] = molecular target: HIV-1 Env 426c, Env-pseudotyped virus produced in 293S GnTI- cells (Man5-enriched) (HIV-1 clade C strain 426c); assay: cell-based or functional assay
[44] = molecular target: HIV-1 clade C strain 426c Env on Env-pseudotyped virus produced in 293T cells (HIV-1); assay: cell-based or functional assay

Substance	IC50 (µg/ml) in TZM-bl [10] [µg/mL]	IC50 (µg/ml) in TZM-bl [11] [µg/mL]	IC50 (µg/ml) in TZM-bl [12] [µg/mL]	IC50 (µg/ml) in TZM-bl [13] [µg/mL]	IC50 (µg/ml) in TZM-bl [14] [µg/mL]	IC50 (µg/ml) in TZM-bl [15] [µg/mL]	IC50 (µg/ml) in TZM-bl [16] [µg/mL]	IC50 (µg/ml) in TZM-bl [17] [µg/mL]	IC50 (µg/ml) in TZM-bl [18] [µg/mL]	IC50 (µg/ml) in TZM-bl [19] [µg/mL]	IC50 (µg/ml) in TZM-bl [20] [µg/mL]	IC50 (µg/ml) in TZM-bl [21] [µg/mL]	IC50 (µg/ml) in TZM-bl [22] [µg/mL]	IC50 (µg/ml) in TZM-bl [23] [µg/mL]	IC50 (µg/ml) in TZM-bl [24] [µg/mL]	IC50 (µg/ml) in TZM-bl [25] [µg/mL]	IC50 (µg/ml) in TZM-bl [26] [µg/mL]	also measured
CH104 (antibody)	–	–	–	–	–	–	–	–	–	–	–	–	–	–	–	–	–	log AUC [1]: 10.7 log AUC; log AUC [2]: 10.8 log AUC; log AUC [3]: 10.4 log AUC; log AUC [4]: 13.7 log AUC; log AUC [5]: 9.9 log AUC; log AUC [6]: 9 log AUC; log AUC (CH505 M11 gp120 (HIV-1)): 12 log AUC; log AUC [7]: 11.3 log AUC; log AUC [8]: 10.4 log AUC; log AUC [9]: 11 log AUC; log AUC (CH505 M5 gp120 (HIV-1)): 9 log AUC
N6 (antibody)	0.004	0.003	0.016	0.004	0.003	0.06	0.002	0.008	0.001	0.01	0.02	0.001	0.01	0.02	0.06	0.02	> 17	–
VRC-CH31 (antibody)	0.001	0.01	0.04	0.09	0.002	0.03	0.007	0.06	0.002	0.05	0.023	0.001	0.01	1.2	0.03	< 0.01	> 25	ID50/IC50 in TZM-bl [27]: 0.7 µg/mL; IC50 (µg/ml) in TZM-bl [28]: > 25 µg/mL; IC50 (µg/ml) in TZM-bl [29]: 0.62 µg/mL; ID50/IC50 in TZM-bl [30]: 0.73 µg/mL; ID50/IC50 in TZM-bl [31]: 1.6 µg/mL; IC50 (µg/ml) in TZM-bl [32]: > 25 µg/mL; IC50 (µg/ml) in TZM-bl [33]: 0.02 µg/mL; IC50 (µg/ml) in TZM-bl [34]: 0.7 µg/mL; ID50/IC50 in TZM-bl [35]: 0.04 µg/mL; ID50/IC50 in TZM-bl [36]: 0.02 µg/mL; IC50 (µg/ml) in TZM-bl [37]: 0.73 µg/mL; ID50/IC50 in TZM-bl [38]: > 25 µg/mL; IC50 (µg/ml) in TZM-bl [39]: 0.01 µg/mL; IC50 (µg/ml) in TZM-bl [40]: 0.15 µg/mL; ID50/IC50 in TZM-bl [41]: > 25 µg/mL; IC50 (µg/ml) in TZM-bl [42]: 1.6 µg/mL; IC50 (µg/ml) in TZM-bl [43]: 0.04 µg/mL; ID50/IC50 in TZM-bl [44]: 0.62 µg/mL
